Molecular target: T1, hCMV glycoprotein H (gH) (human cytomegalovirus (Human …, UniProt Q6SW67 24-742))
T1 construct: also called envelope glycoprotein H
T1 sequence: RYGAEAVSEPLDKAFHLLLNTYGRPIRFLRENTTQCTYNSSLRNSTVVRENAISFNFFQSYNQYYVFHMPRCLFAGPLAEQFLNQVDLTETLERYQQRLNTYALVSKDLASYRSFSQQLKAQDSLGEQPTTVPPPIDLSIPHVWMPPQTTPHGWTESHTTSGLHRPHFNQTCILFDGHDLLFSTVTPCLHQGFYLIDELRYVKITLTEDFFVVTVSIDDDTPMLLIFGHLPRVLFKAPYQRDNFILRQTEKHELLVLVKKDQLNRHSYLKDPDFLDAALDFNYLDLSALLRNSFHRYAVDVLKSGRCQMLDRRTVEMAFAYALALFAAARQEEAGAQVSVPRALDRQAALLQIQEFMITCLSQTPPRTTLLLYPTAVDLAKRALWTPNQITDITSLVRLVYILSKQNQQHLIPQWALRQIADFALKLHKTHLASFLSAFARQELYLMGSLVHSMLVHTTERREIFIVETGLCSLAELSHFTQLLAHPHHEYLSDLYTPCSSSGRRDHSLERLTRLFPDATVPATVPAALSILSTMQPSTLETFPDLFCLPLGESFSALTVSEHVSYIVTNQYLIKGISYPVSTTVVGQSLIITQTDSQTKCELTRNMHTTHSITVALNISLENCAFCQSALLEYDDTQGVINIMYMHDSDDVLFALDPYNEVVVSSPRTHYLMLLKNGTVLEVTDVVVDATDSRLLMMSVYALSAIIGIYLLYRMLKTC
Assay: co-expression in HeLa cells, surface gH read by FACS with 3G16

B1: hCMV glycoprotein L (gL) (other)
chain: AAVSVAPTAAEKVPAECPELTRRCLLGEVFEGDKYESWLRPLVNVTGRDGPLSQLIRYRPVTPEAANSVLLDEAFLDTLALLYNNPDQLRALLTLLSSDTAPRWMTVMRGYSECGDGSPAVYTCVDDLCRGYDLTRLSYGRSIFTEHVLGFELVPPSLFNVVVAIRNEATRTNRAVRLPVSTAAAPEGITLFYGLYNAVKEFCLRHQLDPPLLRHLDKYYAGLPPELKQTRVNLPAHSRYGPQAVDAR
binding result: binds

From US20180271975A1 (MODERNATX, published 2018)
